Laboratory results taken from US20250002610A1 (Genmab, published 2025).
Where a chain is given by its changes, count along the chain named.

Legend:
[1] = molecular target: human DR4 with death domain deletion on ExpiCHO-S cells (human); experiment: flow cytometry, ExpiCHO-S cells expressing human DR4, n = 3
Protocol: Binding of BisG1-FAPα-FERL/DR4-FERR, BisG1-DR4-FEAL/b12-FEAR and IgG1-DR4-FERR to DR4 of various species commonly used for nonclinical toxicology studies was assessed by flow cytometry using ExpiCHO-S cells transiently expressing DR4 from different animal species. In contrast to other species, rodents only express one DR which has highest homology with human DR5. Therefore, ExpiCHO-S cells transiently expressing rat and mouse DR protein were used instead. All DR constructs lack the intracellular DD to avoid apoptosis of transfected cells upon DR(4) activation. IgG1-b12 was used as negative control.

[2] = molecular target: T1, human FAPα (Fibroblast activation protein alpha), cell surface expressed (human, UniProt Q12884 1-760); experiment: flow cytometry, CAFs, n = 3
T1 construct: Endogenous on human lung fibroblasts and CAFs
T1 sequence: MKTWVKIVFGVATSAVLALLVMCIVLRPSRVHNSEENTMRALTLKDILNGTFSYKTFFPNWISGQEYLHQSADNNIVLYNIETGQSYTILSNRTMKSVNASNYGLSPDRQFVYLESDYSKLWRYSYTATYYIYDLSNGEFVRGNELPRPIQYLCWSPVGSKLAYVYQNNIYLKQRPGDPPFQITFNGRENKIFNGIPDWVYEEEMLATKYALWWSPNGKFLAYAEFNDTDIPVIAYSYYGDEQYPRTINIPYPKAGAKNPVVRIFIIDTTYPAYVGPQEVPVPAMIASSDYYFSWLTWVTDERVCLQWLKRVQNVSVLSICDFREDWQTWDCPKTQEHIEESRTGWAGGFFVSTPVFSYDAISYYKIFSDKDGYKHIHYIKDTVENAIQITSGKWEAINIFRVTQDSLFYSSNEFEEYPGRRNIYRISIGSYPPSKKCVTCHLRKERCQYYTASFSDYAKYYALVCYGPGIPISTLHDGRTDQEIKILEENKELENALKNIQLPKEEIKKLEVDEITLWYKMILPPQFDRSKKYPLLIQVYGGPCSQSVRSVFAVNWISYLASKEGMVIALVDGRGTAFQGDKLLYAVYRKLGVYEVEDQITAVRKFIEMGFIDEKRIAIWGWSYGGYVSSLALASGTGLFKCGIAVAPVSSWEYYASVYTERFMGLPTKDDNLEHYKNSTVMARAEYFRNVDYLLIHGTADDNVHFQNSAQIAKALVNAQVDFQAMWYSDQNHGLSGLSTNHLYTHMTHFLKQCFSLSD
Protocol: Binding of bispecific or monoclonal antibodies carrying the anti-FAPα arm derived from IgG1-FAPα-FERL (BisG1-FAPα-FERL/DR4-FERR, BisG1-FAPα-FERL/b12-FERR, and IgG1-FAPα-FERL) to cell surface expressed human FAPα was analyzed by flow cytometry using human lung fibroblasts and CAFs, which endogenously express FAPα. BisG1-b12-FERL/b12-FERR was used as negative control.
Human lung fibroblasts and CAFs (50,000 cells/well) were seeded in 96-Well round bottom plates (Greiner Bio-one, Cat #650101). Antibody dilutions were prepared using fluorescence-activated cell sorting (FACS) buffer, consisting of phosphate buffer saline (PBS, Lonza, Cat #BE17-517Q)+1% Bovine Serum Albumin (BSA, Roche, Cat #10735086001)+0.02% Sodium Azide (Bio-World, Cat #41920044-3). Plates were centrifuged, supernatant was removed, cells were resuspended in 50 μL of human Fc Block (BD, Cat #564220, diluted 1:100 in FACS buffer) and 50 μL of viability stain TO-PRO-3 Iodide (Thermo Fisher, Cat #T3605, diluted 1: 25,000 in FACS buffer), and incubated for 15 min at 4° C. Plates were washed three times with FACS buffer. […] Antibody binding to viable cells (TO-PRO-3 negative) was analyzed by flow cytometry on a FACSCelesta™ (BD biosciences) and data were processed using FlowJo_v10.8.1 (FlowJo LLC). Geomean fluorescence intensity, gMFI, was determined and visualized using GraphPad Prism.

[3] = molecular target: T2, human DR4 (Death Receptor 4), cell surface expressed on human tumor cell lines (human, UniProt O00220 24-468); experiment: flow cytometry, MDA-MB-231 cells, n = 3
T2 construct: also called TNFRSF10A; TRAIL-R1
T2 sequence: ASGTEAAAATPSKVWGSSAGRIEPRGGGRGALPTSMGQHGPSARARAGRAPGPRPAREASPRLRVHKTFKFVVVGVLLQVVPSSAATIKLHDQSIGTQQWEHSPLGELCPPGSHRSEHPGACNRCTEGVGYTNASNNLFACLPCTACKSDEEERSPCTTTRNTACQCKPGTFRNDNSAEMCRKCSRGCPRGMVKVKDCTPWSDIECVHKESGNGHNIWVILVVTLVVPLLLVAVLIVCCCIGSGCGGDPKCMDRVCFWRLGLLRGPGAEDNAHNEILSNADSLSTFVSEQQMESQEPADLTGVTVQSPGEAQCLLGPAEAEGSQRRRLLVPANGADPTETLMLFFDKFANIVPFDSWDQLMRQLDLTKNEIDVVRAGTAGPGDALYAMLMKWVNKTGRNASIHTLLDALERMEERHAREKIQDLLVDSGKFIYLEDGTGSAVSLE

Chain of human DR4 with death domain deletion on ExpiCHO-S cells (human) (chain, as listed by the source limits assumed, stated change not applied): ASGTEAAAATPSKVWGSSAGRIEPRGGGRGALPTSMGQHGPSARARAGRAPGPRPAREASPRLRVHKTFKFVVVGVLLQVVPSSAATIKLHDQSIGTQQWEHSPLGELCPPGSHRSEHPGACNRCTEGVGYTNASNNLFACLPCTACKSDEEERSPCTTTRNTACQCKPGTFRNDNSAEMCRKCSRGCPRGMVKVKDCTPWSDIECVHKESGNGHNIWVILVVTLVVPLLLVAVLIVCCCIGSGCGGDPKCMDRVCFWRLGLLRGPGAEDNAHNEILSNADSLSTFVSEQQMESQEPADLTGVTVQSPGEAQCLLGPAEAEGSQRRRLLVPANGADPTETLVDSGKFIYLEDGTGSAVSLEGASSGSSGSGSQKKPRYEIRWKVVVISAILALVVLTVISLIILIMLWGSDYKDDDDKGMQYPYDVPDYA

B1: BisG1-FAPα-FERL/DR4-FERR (bispecific antibody, human IgG1, kappa, lambda)
heavy 1: EVQLLESGGGLVQPGGSPRLSCEASGFTFSSYALSWVRQAPGKGLEWVSAISGSGGGRYYADSVKGRFTISRDNSKNTLFLQMNSLRAEDTAVYYCAKEGYSSSGTYWDHWGQGTLVTVSSASTKGPSVFPLAPSSKSTSGGTAALGCLVKDYFPEPVTVSWNSGALTSGVHTFPAVLQSSGLYSLSSVVTVPSSSLGTQTYICNVNHKPSNTKVDKRVEPKSCDKTHTCPPCPAPEFERGPSVFLFPPKPKDTLMISRTPEVTCVVVDVSHEDPEVKFNWYVDGVEVHNAKTKPREEQYNSTYRVVSVLTVLHQDWLNGKEYKCKVSNKALPAPIEKTISKAKGQPREPQVYTLPPSREEMTKNQVSLTCLVKGFYPSDIAVEWESNGQPENNYKTTPPVLDSDGSFLLYSKLTVDKSRWQQGNVFSCSVMHEALHNHYTQKSLSLSPG
light 1: AIQMTQSPSSVSASVGDRVTITCRASQGVSSWLAWYQQKPGRAPKLLIYVASTLQSGVPSRFSGSGSGTDFTLTINSLQPEDFATYYCQQANSFPPTFGQGTRLEMKRTVAAPSVFIFPPSDEQLKSGTASVVCLLNNFYPREAKVQWKVDNALQSGNSQESVTEQDSKDSTYSLSSTLTLSKADYEKHKVYACEVTHQGLSSPVTKSFNRGEC
heavy 2: QVQLQESGPGLVKPSGTLSLTCAVSGGSISSYSWWSWIRQPPGKGLEWIGELYHSGSTNYNPSLKSRVTISVDKSKNQFSLKLRSVTAADTAVYYCVRGVATIDYWGQGTLVTVSSASTKGPSVFPLAPSSKSTSGGTAALGCLVKDYFPEPVTVSWNSGALTSGVHTFPAVLQSSGLYSLSSVVTVPSSSLGTQTYICNVNHKPSNTKVDKRVEPKSCDKTHTCPPCPAPEFERGPSVFLFPPKPKDTLMISRTPEVTCVVVDVSHEDPEVKFNWYVDGVEVHNAKTKPREEQYNSTYRVVSVLTVLHQDWLNGKEYKCKVSNKALPAPIEKTISKAKGQPREPQVYTLPPSREEMTKNQVSLTCLVKGFYPSDIAVEWESNGQPENNYKTTPPVLDSDGSFFLYSRLTVDKSRWQQGNVFSCSVMHEALHNHYTQKSLSLSPG
light 2: QSALTQPPSASGSPGQSVTISCTGTSSDVGGYNFVSWYQQDPGKAPKLLIYEVTKRPSGVPDRFSGSKSGNTASLTVSGLQAEDEADYYCSSYAGSNNVMFGGGTKLTVLGQPKAAPSVTLFPPSSEELQANKATLVCLISDFYPGAVTVAWKADSSPVKAGVETTTPSKQSNNKYAASSYLSLTPEQWKSHRSYSCQVTHEGSTVEKTVAPTECS
notes: Human IgG1 bispecific made by controlled Fab-arm exchange of IgG1-FAPα-FERL and IgG1-DR4-FERR; monovalent for FAPα and for DR4; also called GEN1057
EC50 [1]: 0.11 µg/mL | EC50 [2]: 0.211 µg/mL

B2: BisG1-b12-FERL/DR4-FERR (bispecific antibody, human IgG1, kappa, lambda)
heavy 1: QVQLVQSGAEVKKPGASVKVSCQASGYRFSNFVIHWVRQAPGQRFEWMGWINPYNGNKEFSAKFQDRVTFTADTSANTAYMELRSLRSADTAVYYCARVGPYSWDDSPQDNYYMDVWGKGTTVIVSSASTKGPSVFPLAPSSKSTSGGTAALGCLVKDYFPEPVTVSWNSGALTSGVHTFPAVLQSSGLYSLSSVVTVPSSSLGTQTYICNVNHKPSNTKVDKRVEPKSCDKTHTCPPCPAPEFERGPSVFLFPPKPKDTLMISRTPEVTCVVVDVSHEDPEVKFNWYVDGVEVHNAKTKPREEQYNSTYRVVSVLTVLHQDWLNGKEYKCKVSNKALPAPIEKTISKAKGQPREPQVYTLPPSREEMTKNQVSLTCLVKGFYPSDIAVEWESNGQPENNYKTTPPVLDSDGSFLLYSKLTVDKSRWQQGNVFSCSVMHEALHNHYTQKSLSLSPG
light 1: EIVLTQSPGTLSLSPGERATFSCRSSHSIRSRRVAWYQHKPGQAPRLVIHGVSNRASGISDRFSGSGSGTDFTLTITRVEPEDFALYYCQVYGASSYTFGQGTKLERKRTVAAPSVFIFPPSDEQLKSGTASVVCLLNNFYPREAKVQWKVDNALQSGNSQESVTEQDSKDSTYSLSSTLTLSKADYEKHKVYACEVTHQGLSSPVTKSFNRGEC
heavy 2: B1 heavy 2
light 2: B1 light 2
notes: Fab-arm exchange of IgG1-b12-FERL and IgG1-DR4-FERR; also called bsIgG1-ctrl-FERLxDR4-FERR
EC50 [3]: 0.92 µg/mL

B3: BisG1-FAPα-FERL/b12-FERR (bispecific antibody, human IgG1, kappa)
heavy 1: B1 heavy 1
light 1: B1 light 1
heavy 2: B2 heavy 1 with L415F, K419R
light 2: B2 light 1
EC50 [2]: 0.218 µg/mL

B4: IgG1-DR4-FERR (antibody, V domains shown)
VH: QVQLQESGPGLVKPSGTLSLTCAVSGGSISSYSWWSWIRQPPGKGLEWIGELYHSGSTNYNPSLKSRVTISVDKSKNQFSLKLRSVTAADTAVYYCVRGVATIDYWGQGTLVTVSS
VL: QSALTQPPSASGSPGQSVTISCTGTSSDVGGYNFVSWYQQDPGKAPKLLIYEVTKRPSGVPDRFSGSKSGNTASLTVSGLQAEDEADYYCSSYAGSNNVMFGGGTKLTVLG
notes: Bivalent monoclonal IgG1 lambda
EC50 [1]: 0.04 µg/mL | EC50 [3]: 0.37 µg/mL
